Results as given in US20230407373A1 (priority 2020, published 2023).
Like-named read-outs stand apart in the source and are kept apart here.

B1: LMNA (protein, UniProt P02545 1-661, looked up)
Prelamin-A/C: METPSQRRATRSGAQASSTPLSPTRITRLQEKEDLQELNDRLAVYIDRVRSLETENAGLRLRITESEEVVSREVSGIKAAYEAELGDARKTLDSVAKERARLQLELSKVREEFKELKARNTKKEGDLIAAQARLKDLEALLNSKEAALSTALSEKRTLEGELHDLRGQVAKLEAALGEAKKQLQDEMLRRVDAENRLQTMKEELDFQKNIYSEELRETKRRHETRLVEIDNGKQREFESRLADALQELRAQHEDQVEQYKKELEKTYSAKLDNARQSAERNSNLVGAAHEELQQSRIRIDSLSAQLSQLQKQLAAKEAKLRDLEDSLARERDTSRRLLAEKEREMAEMRARMQQQLDEYQELLDIKLALDMEIHAYRKLLEGEEERLRLSPSPTSQRSRGRASSHSSQTQGGGSVTKKRKLESTESRSSFSQHARTSGRVAVEEVDEEGKFVRLRNKSNEDQSMGNWQIKRQNGDDPLLTYRFPPKFTLKAGQVVTIWAAGAGATHSPPTDLVWKAQNTWGCGNSLRTALINSTGEEVAMRKLVRSVTVVEDDEDEDGDDLLHHHHGSHCSSSGDPAEYNLRSRTVLCGTCGQPADKASASGSGAQVGGPISSGSSASSVTVTRSYRSVGGSGGGSFGDNLVTRSYLLGNSSPRTQSPQNC
B2: KRT9 (protein, UniProt P35527 1-623, looked up)
Keratin, type I cytoskeletal 9: MSCRQFSSSYLSRSGGGGGGGLGSGGSIRSSYSRFSSSGGGGGGGRFSSSSGYGGGSSRVCGRGGGGSFGYSYGGGSGGGFSASSLGGGFGGGSRGFGGASGGGYSSSGGFGGGFGGGSGGGFGGGYGSGFGGFGGFGGGAGGGDGGILTANEKSTMQELNSRLASYLDKVQALEEANNDLENKIQDWYDKKGPAAIQKNYSPYYNTIDDLKDQIVDLTVGNNKTLLDIDNTRMTLDDFRIKFEMEQNLRQGVDADINGLRQVLDNLTMEKSDLEMQYETLQEELMALKKNHKEEMSQLTGQNSGDVNVEINVAPGKDLTKTLNDMRQEYEQLIAKNRKDIENQYETQITQIEHEVSSSGQEVQSSAKEVTQLRHGVQELEIELQSQLSKKAALEKSLEDTKNRYCGQLQMIQEQISNLEAQITDVRQEIECQNQEYSLLLSIKMRLEKEIETYHNLLEGGQEDFESSGAGKIGLGGRGGSGGSYGRGSRGGSGGSYGGGGSGGGYGGGSGSRGGSGGSYGGGSGSGGGSGGGYGGGSGGGHSGGSGGGHSGGSGGNYGGGSGSGGGSGGGYGGGSGSRGGSGGSHGGGSGFGGESGGSYGGGEEASGSGGGYGGGSGKSSHS
B3: KRT14 (protein, UniProt P02533 1-472, looked up)
Keratin, type I cytoskeletal …: MTTCSRQFTSSSSMKGSCGIGGGIGGGSSRISSVLAGGSCRAPSTYGGGLSVSSSRFSSGGACGLGGGYGGGFSSSSSSFGSGFGGGYGGGLGAGLGGGFGGGFAGGDGLLVGSEKVTMQNLNDRLASYLDKVRALEEANADLEVKIRDWYQRQRPAEIKDYSPYFKTIEDLRNKILTATVDNANVLLQIDNARLAADDFRTKYETELNLRMSVEADINGLRRVLDELTLARADLEMQIESLKEELAYLKKNHEEEMNALRGQVGGDVNVEMDAAPGVDLSRILNEMRDQYEKMAEKNRKDAEEWFFTKTEELNREVATNSELVQSGKSEISELRRTMQNLEIELQSQLSMKASLENSLEETKGRYCMQLAQIQEMIGSVEEQLAQLRCEMEQQNQEYKILLDVKTRLEQEIATYRRLLEGEDAHLSSSQFSSGSQSSRDVTSSSRQIRTKVMDVHDGKVVSTHEQVLRTKN
B4: HMGB1 (protein, UniProt P09429 1-215, looked up)
High mobility group protein B1: MGKGDPKKPRGKMSSYAFFVQTCREEHKKKHPDASVNFSEFSKKCSERWKTMSAKEKGKFEDMAKADKARYEREMKTYIPPKGETKKKFKDPNAPKRPPSAFFLFCSEYRPKIKGEHPGLSIGDVAKKLGEMWNNTAADDKQPYEKKAAKLKEKYEKDIAAYRAKGKPDAAKKGVVKAEKSKKKKEEEEDEEDEEDEEEEEDEEDEDEEEDDDDE
B5: HNANPA3 (protein, UniProt P51991 1-378, looked up)
Heterogeneous nuclear …: MEVKPPPGRPQPDSGRRRRRRGEEGHDPKEPEQLRKLFIGGLSFETTDDSLREHFEKWGTLTDCVVMRDPQTKRSRGFGFVTYSCVEEVDAAMCARPHKVDGRVVEPKRAVSREDSVKPGAHLTVKKIFVGGIKEDTEEYNLRDYFEKYGKIETIEVMEDRQSGKKRGFAFVTFDDHDTVDKIVVQKYHTINGHNCEVKKALSKQEMQSAGSQRGRGGGSGNFMGRGGNFGGGGGNFGRGGNFGGRGGYGGGGGGSRGSYGGGDGGYNGFGGDGGNYGGGPGYSSRGGYGGGGPGYGNQGGGYGGGGGYDGYNEGGNFGGGNYGGGGNYNDFGNYSGQQQSNYGPMKGGSFGGRSSGSPYGGGYGSGGGSGGYGSRRF
B6: MTDH (protein, UniProt Q86UE4 1-582, looked up)
Protein LYRIC: MAARSWQDELAQQAEEGSARLREMLSVGLGFLRTELGLDLGLEPKRYPGWVILVGTGALGLLLLFLLGYGWAAACAGARKKRRSPPRKREEAAAVPAAAPDDLALLKNLRSEEQKKKNRKKLSEKPKPNGRTVEVAEGEAVRTPQSVTAKQPPEIDKKNEKSKKNKKKSKSDAKAVQNSSRHDGKEVDEGAWETKISHREKRQQRKRDKVLTDSGSLDSTIPGIENTITVTTEQLTTASFPVGSKKNKGDSHLNVQVSNFKSGKGDSTLQVSSGLNENLTVNGGGWNEKSVKLSSQISAGEEKWNSVSPASAGKRKTEPSAWSQDTGDANTNGKDWGRSWSDRSIFSGIGSTAEPVSQSTTSDYQWDVSRNQPYIDDEWSGLNGLSSADPNSDWNAPAEEWGNWVDEERASLLKSQEPIPDDQKVSDDDKEKGEGALPTGKSKKKKKKKKKQGEDNSTAQDTEELEKEIREDLPVNTSKTRPKQEKAFSLKTISTSDPAEVLVKNSQPIKTLPPATSTEPSVILSKSDSDKSSSQVPPILQETDKSKSNTKQNSVPPSQTKSETSWESPKQIKKKKKARRET
B7: HNANPA0 (protein, UniProt Q13151 1-305, looked up)
Heterogeneous nuclear …: MENSQLCKLFIGGLNVQTSESGLRGHFEAFGTLTDCVVVVNPQTKRSRCFGFVTYSNVEEADAAMAASPHAVDGNTVELKRAVSREDSARPGAHAKVKKLFVGGLKGDVAEGDLIEHFSQFGTVEKAEIIADKQSGKKRGFGFVYFQNHDAADKAAVVKFHPIQGHRVEVKKAVPKEDIYSGGGGGGSRSSRGGRGGRGRGGGRDQNGLSKGGGGGYNSYGGYGGGGGGGYNAYGGGGGGSSYGGSDYGNGFGGFGSYSQHQSSYGPMKSGGGGGGGGSSWGGRSNSGPYRGGYGGGGGYGGSSF
B8: DRX30 (protein, UniProt Q7L2E3 1-1194, looked up)
ATP-dependent RNA helicase …: MFSLDSFRKDRAQHRQRQCKLPPPRLPPMCVNPTPGGTISRASRDLLKEFPQPKNLLNSVIGRALGISHAKDKLVYVHTNGPKKKKVTLHIKWPKSVEVEGYGSKKIDAERQAAAAACQLFKGWGLLGPRNELFDAAKYRVLADRFGSPADSWWRPEPTMPPTSWRQLNPESIRPGGPGGLSRSLGREEEEDEEEELEEGTIDVTDFLSMTQQDSHAPLRDSRGSSFEMTDDDSAIRALTQFPLPKNLLAKVIQIATSSSTAKNLMQFHTVGTKTKLSTLTLLWPCPMTFVAKGRRKAEAENKAAALACKKLKSLGLVDRNNEPLTHAMYNLASLRELGETQRRPCTIQVPEPILRKIETFLNHYPVESSWIAPELRLQSDDILPLGKDSGPLSDPITGKPYVPLLEAEEVRLSQSLLELWRRRGPVWQEAPQLPVDPHRDTILNAIEQHPVVVISGDTGCGKTTRIPQLLLERYVTEGRGARCNVIITQPRRISAVSVAQRVSHELGPSLRRNVGFQVRLESKPPSRGGALLFCTVGILLRKLQSNPSLEGVSHVIVDEVHERDVNTDFLLILLKGLQRLNPALRLVLMSATGDNERFSRYFGGCPVIKVPGFMYPVKEHYLEDILAKLGKHQYLHRHRHHESEDECALDLDLVTDLVLHIDARGEPGGILCFLPGWQEIKGVQQRLQEALGMHESKYLILPVHSNIPMMDQKAIFQQPPVGVRKIVLATNIAETSITINDIVHVVDSGLHKEERYDLKTKVSCLETVWVSRANVIQRRGRAGRCQSGFAYHLFPRSRLEKMVPFQVPEILRTPLENLVLQAKIHMPEKTAVEFLSKAVDSPNIKAVDEAVILLQEIGVLDQREYLTTLGQRLAHISTDPRLAKAIVLAAIFRCLHPLLVVVSCLTRDPFSSSLQNRAEVDKVKALLSHDSGSDHLAFVRAVAGWEEVLRWQDRSSRENYLEENLLYAPSLRFIHGLIKQFSENIYEAFLVGKPSDCTLASAQCNEYSEEEELVKGVLMAGLYPNLIQVRQGKVTRQGKFKPNSVTYRTKSGNILLHKSTINREATRLRSRWLTYFMAVKSNGSVFVRDSSQVHPLAVLLLTDGDVHIRDDGRRATISLSDSDLLRLEGDSRTVRLLKELRRALGRMVERSLRSELAALPPSVQEEHGQLLALLAELLRGPCGSFDVRKTADD
B9: KRT1 (protein, UniProt P04264 2-644, looked up)
Keratin, type II cytoskeletal …: SRQFSSRSGYRSGGGFSSGSAGIINYQRRTTSSSTRRSGGGGGRFSSCGGGGGSFGAGGGFGSRSLVNLGGSKSISISVARGGGRGSGFGGGYGGGGFGGGGFGGGGFGGGGIGGGGFGGFGSGGGGFGGGGFGGGGYGGGYGPVCPPGGIQEVTINQSLLQPLNVEIDPEIQKVKSREREQIKSLNNQFASFIDKVRFLEQQNQVLQTKWELLQQVDTSTRTHNLEPYFESFINNLRRRVDQLKSDQSRLDSELKNMQDMVEDYRNKYEDEINKRTNAENEFVTIKKDVDGAYMTKVDLQAKLDNLQQEIDFLTALYQAELSQMQTQISETNVILSMDNNRSLDLDSIIAEVKAQYEDIAQKSKAEAESLYQSKYEELQITAGRHGDSVRNSKIEISELNRVIQRLRSEIDNVKKQISNLQQSISDAEQRGENALKDAKNKLNDLEDALQQAKEDLARLLRDYQELMNTKLALDLEIATYRTLLEGEESRMSGECAPNVSVSVSTSHTTISGGGSRGGGGGGYGSGGSSYGSGGGSYGSGGGGGGGRGSYGSGGSSYGSGGGSYGSGGGGGGHGSYGSGSSSGGYRGGSGGGGGGSSGGRGSGGGSSGGSIGGRGSSSGGVKSSGGSSSVKFVSTTYSGVTR

Tested on: HCoV-OC43 gRNA and sgRNA
Format: binding
Details: for target (unweighted spectral count): OC43 Probe II, infected cells; for target (unweighted spectral count) / target (unweighted spectral count, OC43 Probe II capture): tested against no-probe control; for target (unweighted spectral count, OC43 Probe II capture): FDR<10%

Molecule | target (unweighted spectral count) (12 hpi (type n_12_v)) | target (unweighted spectral count) (24 hpi (type n_24_v)) | target (unweighted spectral count, OC43 Probe II capture) (24 hpi, type n_24_v) | other results
B1 | 7 | 8 |  | 
B2 |  | 53 |  | 
B3 |  |  | 7 | 
B4 | 7 | 6 |  | 
B5 | 14 |  |  | 
B6 |  |  | 5 | target (unweighted spectral count, OC43 Probe II capture) (36 hpi, type n_36_v): 6; target (unweighted spectral count, OC43 Probe II) (type n_48_v, 48 hpi, OC43 Probe II capture on infected cells): 6; background (unweighted spectral count, no-probe control) (type n_48_v, 48 hpi, no-probe control on infected cells): 1
B7 | 5 | 7 |  | 
B8 |  | 10 |  | 
B9 |  |  | 49 | 
